Test results taken from PMC6193622, “Identification of UHRF2 as a novel DNA interstrand crosslink sensor protein” (PLoS Genetics, 2018).

B1: Flag-UHRF1 with the PHD domain deleted (natural protein, human, UniProt Q96T88-2 1-806, looked up)
chain: MGVFAVPPLSSDTMWIQVRTMDGRQTHTVDSLSRLTKVEELRRKIQELFHVEPGLQRLFYRGKQMEDGHTLFDYEVRLNDTIQLLVRQSLVLPHSTKERDSELSDTDSGCCLGQSESDKSSTHGEAAAETDSRPADEDMWDETELGLYKVNEYVDARDTNMGAWFEAQVVRVTRKAPSRDEPCSSTSRPALEEDVIYHVKYDDYPENGVVQMNSRDVRARARTIIKWQDLEVGQVVMLNYNPDNPKERGFWYDAEISRKRETRTARELYANVVLGDDSLNDCRIIFVDEVFKIERPGEGSPMVDNPMRRKSGPSCKHCKDDVASEVVLAGERLRESKKKAKMASATSSSQRDWGKGMACVGRTKECTIVPSNHYGPIPGIPVGTMWRFRVQVSESGVHRPHVAGIHGRSNDGAYSLVLAGGYEDDVDHGNFFTYTGSGGRDLSGNKRTAEQSCDQKLTNTNRALALNCFAPINDQEGAEAKDWRSGKPVRVVRNVKGGKNSKYAPAEGNRYDGIYKVVKYWPEKGKSGFLVWRYLLRRDDDEPGPWTKEGKDRIKKLGLTMQYPEGYLEALANREREKENSKREEEEQQEGGFASPRTGKGKWKRKSAGGGPSRAGSPRRTSKKTKVEPYSLTAQQSSLIREDKSNAKLWNEVLASLKDRPASGSPFQLFLSKVEETFQCICCQELVFRPITTVCQHNVCKDCLDRSFRAQVFSCPACRYDLGRSYAMQVNQPLQTVLNQLFPGYGNGR
notes: UHRF1, human, amino acids 323-379 (PHD domain) deleted; also called UHRF1 PHD deletion mutant; source: Sf9, purified
B2: Flag-UHRF1 with the TTD domain deleted (natural protein, human, UniProt Q96T88-2 1-806, looked up)
chain: MGVFAVPPLSSDTMWIQVRTMDGRQTHTVDSLSRLTKVEELRRKIQELFHVEPGLQRLFYRGKQMEDGHTLFDYEVRLNDTIQLLVRQSLVLPHSTKERDSELSDTDSGCCLGQSESDKSSTHGEAAAETDSRPADEDMWDETELGEGSPMVDNPMRRKSGPSCKHCKDDVNRLCRVCACHLCGGRQDPDKQLMCDECDMAFHIYCLDPPLSSVPSEDEWYCPECRNDASEVVLAGERLRESKKKAKMASATSSSQRDWGKGMACVGRTKECTIVPSNHYGPIPGIPVGTMWRFRVQVSESGVHRPHVAGIHGRSNDGAYSLVLAGGYEDDVDHGNFFTYTGSGGRDLSGNKRTAEQSCDQKLTNTNRALALNCFAPINDQEGAEAKDWRSGKPVRVVRNVKGGKNSKYAPAEGNRYDGIYKVVKYWPEKGKSGFLVWRYLLRRDDDEPGPWTKEGKDRIKKLGLTMQYPEGYLEALANREREKENSKREEEEQQEGGFASPRTGKGKWKRKSAGGGPSRAGSPRRTSKKTKVEPYSLTAQQSSLIREDKSNAKLWNEVLASLKDRPASGSPFQLFLSKVEETFQCICCQELVFRPITTVCQHNVCKDCLDRSFRAQVFSCPACRYDLGRSYAMQVNQPLQTVLNQLFPGYGNGR
notes: UHRF1, human, amino acids 146-296 (TTD domain) deleted; also called UHRF1 TTD deletion mutant; source: Sf9, purified
B3: Flag-UHRF1 with the UBL domain deleted (natural protein, human, UniProt Q96T88-2 1-806, looked up)
chain: MGVFAVPPLSSDTLPHSTKERDSELSDTDSGCCLGQSESDKSSTHGEAAAETDSRPADEDMWDETELGLYKVNEYVDARDTNMGAWFEAQVVRVTRKAPSRDEPCSSTSRPALEEDVIYHVKYDDYPENGVVQMNSRDVRARARTIIKWQDLEVGQVVMLNYNPDNPKERGFWYDAEISRKRETRTARELYANVVLGDDSLNDCRIIFVDEVFKIERPGEGSPMVDNPMRRKSGPSCKHCKDDVNRLCRVCACHLCGGRQDPDKQLMCDECDMAFHIYCLDPPLSSVPSEDEWYCPECRNDASEVVLAGERLRESKKKAKMASATSSSQRDWGKGMACVGRTKECTIVPSNHYGPIPGIPVGTMWRFRVQVSESGVHRPHVAGIHGRSNDGAYSLVLAGGYEDDVDHGNFFTYTGSGGRDLSGNKRTAEQSCDQKLTNTNRALALNCFAPINDQEGAEAKDWRSGKPVRVVRNVKGGKNSKYAPAEGNRYDGIYKVVKYWPEKGKSGFLVWRYLLRRDDDEPGPWTKEGKDRIKKLGLTMQYPEGYLEALANREREKENSKREEEEQQEGGFASPRTGKGKWKRKSAGGGPSRAGSPRRTSKKTKVEPYSLTAQQSSLIREDKSNAKLWNEVLASLKDRPASGSPFQLFLSKVEETFQCICCQELVFRPITTVCQHNVCKDCLDRSFRAQVFSCPACRYDLGRSYAMQVNQPLQTVLNQLFPGYGNGR
notes: UHRF1, human, amino acids 14-91 (UBL domain) deleted; also called UHRF1 UBL deletion mutant; source: Sf9, purified
B4: 6xHis-UHRF2 purified from Sf9 cells (natural protein, human, UniProt Q96PU4 1-802, looked up)
chain: MWIQVRTIDGSKTCTIEDVSRKATIEELRERVWALFDVRPECQRLFYRGKQLENGYTLFDYDVGLNDIIQLLVRPDPDHLPGTSTQIEAKPCSNSPPKVKKAPRVGPSNQPSTSARARLIDPGFGIYKVNELVDARDVGLGAWFEAHIHSVTRASDGQSRGKTPLKNGSSCKRTNGNIKHKSKENTNKLDSVPSTSNSDCVAADEDVIYHIQYDEYPESGTLEMNVKDLRPRARTILKWNELNVGDVVMVNYNVESPGQRGFWFDAEITTLKTISRTKKELRVKIFLGGSEGTLNDCKIISVDEIFKIERPGAHPLSFADGKFLRRNDPECDLCGGDPEKKCHSCSCRVCGGKHEPNMQLLCDECNVAYHIYCLNPPLDKVPEEEYWYCPSCKTDSSEVVKAGERLKMSKKKAKMPSASTESRRDWGRGMACVGRTRECTIVPSNHYGPIPGIPVGSTWRFRVQVSEAGVHRPHVGGIHGRSNDGAYSLVLAGGFADEVDRGDEFTYTGSGGKNLAGNKRIGAPSADQTLTNMNRALALNCDAPLDDKIGAESRNWRAGKPVRVIRSFKGRKISKYAPEEGNRYDGIYKVVKYWPEISSSHGFLVWRYLLRRDDVEPAPWTSEGIERSRRLCLRLQYPAGYPSDKEGKKPKGQSKKQPSGTTKRPISDDDCPSASKVYKASDSAEAIEAFQLTPQQQHLIREDCQNQKLWDEVLSHLVEGPNFLKKLEQSFMCVCCQELVYQPVTTECFHNVCKDCLQRSFKAQVFSCPACRHDLGQNYIMIPNEILQTLLDLFFPGYSKGR
notes: UHRF2, human; also called 6xHis-tagged UHRF2; source: Sf9, purified
B5: Flag-UHRF1 with the RING domain deleted (natural protein, human, UniProt Q96T88-2 1-806, looked up)
chain: MGVFAVPPLSSDTMWIQVRTMDGRQTHTVDSLSRLTKVEELRRKIQELFHVEPGLQRLFYRGKQMEDGHTLFDYEVRLNDTIQLLVRQSLVLPHSTKERDSELSDTDSGCCLGQSESDKSSTHGEAAAETDSRPADEDMWDETELGLYKVNEYVDARDTNMGAWFEAQVVRVTRKAPSRDEPCSSTSRPALEEDVIYHVKYDDYPENGVVQMNSRDVRARARTIIKWQDLEVGQVVMLNYNPDNPKERGFWYDAEISRKRETRTARELYANVVLGDDSLNDCRIIFVDEVFKIERPGEGSPMVDNPMRRKSGPSCKHCKDDVNRLCRVCACHLCGGRQDPDKQLMCDECDMAFHIYCLDPPLSSVPSEDEWYCPECRNDASEVVLAGERLRESKKKAKMASATSSSQRDWGKGMACVGRTKECTIVPSNHYGPIPGIPVGTMWRFRVQVSESGVHRPHVAGIHGRSNDGAYSLVLAGGYEDDVDHGNFFTYTGSGGRDLSGNKRTAEQSCDQKLTNTNRALALNCFAPINDQEGAEAKDWRSGKPVRVVRNVKGGKNSKYAPAEGNRYDGIYKVVKYWPEKGKSGFLVWRYLLRRDDDEPGPWTKEGKDRIKKLGLTMQYPEGYLEALANREREKENSKREEEEQQEGGFASPRTGKGKWKRKSAGGGPSRAGSPRRTSKKTKVEPYSLTAQQSSLIREDKSNAKLWNEVLASLKDRPASGSPFQL
notes: UHRF1, human, amino acids 727-806 (RING domain) deleted; also called UHRF1 RING deletion mutant; source: Sf9, purified
B6: Flag-UHRF1 wild type purified from Sf9 cells (natural protein, human, UniProt Q96T88-2 1-806, looked up)
chain: MGVFAVPPLSSDTMWIQVRTMDGRQTHTVDSLSRLTKVEELRRKIQELFHVEPGLQRLFYRGKQMEDGHTLFDYEVRLNDTIQLLVRQSLVLPHSTKERDSELSDTDSGCCLGQSESDKSSTHGEAAAETDSRPADEDMWDETELGLYKVNEYVDARDTNMGAWFEAQVVRVTRKAPSRDEPCSSTSRPALEEDVIYHVKYDDYPENGVVQMNSRDVRARARTIIKWQDLEVGQVVMLNYNPDNPKERGFWYDAEISRKRETRTARELYANVVLGDDSLNDCRIIFVDEVFKIERPGEGSPMVDNPMRRKSGPSCKHCKDDVNRLCRVCACHLCGGRQDPDKQLMCDECDMAFHIYCLDPPLSSVPSEDEWYCPECRNDASEVVLAGERLRESKKKAKMASATSSSQRDWGKGMACVGRTKECTIVPSNHYGPIPGIPVGTMWRFRVQVSESGVHRPHVAGIHGRSNDGAYSLVLAGGYEDDVDHGNFFTYTGSGGRDLSGNKRTAEQSCDQKLTNTNRALALNCFAPINDQEGAEAKDWRSGKPVRVVRNVKGGKNSKYAPAEGNRYDGIYKVVKYWPEKGKSGFLVWRYLLRRDDDEPGPWTKEGKDRIKKLGLTMQYPEGYLEALANREREKENSKREEEEQQEGGFASPRTGKGKWKRKSAGGGPSRAGSPRRTSKKTKVEPYSLTAQQSSLIREDKSNAKLWNEVLASLKDRPASGSPFQLFLSKVEETFQCICCQELVFRPITTVCQHNVCKDCLDRSFRAQVFSCPACRYDLGRSYAMQVNQPLQTVLNQLFPGYGNGR
notes: UHRF1, human, wild type; the deletion limits printed for its mutants run to residue 806, so the 806-residue isoform is meant; also called wild type UHRF1; Flag-tagged wild type UHRF1; source: Sf9, purified

Key:
[1] = biological target: T1, Flag-HA-FANCD2 purified from Sf9 cells (human, UniProt Q9BXW9 1-1451); test: co-IP; in vitro binding assay: 1μg of each protein with 10μg BSA in 20mM Tris-HCl pH 8.0, 150mM KCl, 10% glycerol, 2mM β-ME, 10μl, 37°C 1h; HA-FANCD2 immunoprecipitated on protein A sepharose with anti-HA IgG at 4°C, washed with 0.1% Tween-20, eluted with HA peptide; immunoblotting; conditions: both partners purified
T1 construct: FANCD2, human, full-length form; also called Flag-HA-tagged FANCD2; source: Sf9, purified (M2 anti-Flag agarose, Flag peptide elution); not shown: Flag, N-terminal, kept; HA, N-terminal, kept
T1 sequence (Q9BXW9 whole entry): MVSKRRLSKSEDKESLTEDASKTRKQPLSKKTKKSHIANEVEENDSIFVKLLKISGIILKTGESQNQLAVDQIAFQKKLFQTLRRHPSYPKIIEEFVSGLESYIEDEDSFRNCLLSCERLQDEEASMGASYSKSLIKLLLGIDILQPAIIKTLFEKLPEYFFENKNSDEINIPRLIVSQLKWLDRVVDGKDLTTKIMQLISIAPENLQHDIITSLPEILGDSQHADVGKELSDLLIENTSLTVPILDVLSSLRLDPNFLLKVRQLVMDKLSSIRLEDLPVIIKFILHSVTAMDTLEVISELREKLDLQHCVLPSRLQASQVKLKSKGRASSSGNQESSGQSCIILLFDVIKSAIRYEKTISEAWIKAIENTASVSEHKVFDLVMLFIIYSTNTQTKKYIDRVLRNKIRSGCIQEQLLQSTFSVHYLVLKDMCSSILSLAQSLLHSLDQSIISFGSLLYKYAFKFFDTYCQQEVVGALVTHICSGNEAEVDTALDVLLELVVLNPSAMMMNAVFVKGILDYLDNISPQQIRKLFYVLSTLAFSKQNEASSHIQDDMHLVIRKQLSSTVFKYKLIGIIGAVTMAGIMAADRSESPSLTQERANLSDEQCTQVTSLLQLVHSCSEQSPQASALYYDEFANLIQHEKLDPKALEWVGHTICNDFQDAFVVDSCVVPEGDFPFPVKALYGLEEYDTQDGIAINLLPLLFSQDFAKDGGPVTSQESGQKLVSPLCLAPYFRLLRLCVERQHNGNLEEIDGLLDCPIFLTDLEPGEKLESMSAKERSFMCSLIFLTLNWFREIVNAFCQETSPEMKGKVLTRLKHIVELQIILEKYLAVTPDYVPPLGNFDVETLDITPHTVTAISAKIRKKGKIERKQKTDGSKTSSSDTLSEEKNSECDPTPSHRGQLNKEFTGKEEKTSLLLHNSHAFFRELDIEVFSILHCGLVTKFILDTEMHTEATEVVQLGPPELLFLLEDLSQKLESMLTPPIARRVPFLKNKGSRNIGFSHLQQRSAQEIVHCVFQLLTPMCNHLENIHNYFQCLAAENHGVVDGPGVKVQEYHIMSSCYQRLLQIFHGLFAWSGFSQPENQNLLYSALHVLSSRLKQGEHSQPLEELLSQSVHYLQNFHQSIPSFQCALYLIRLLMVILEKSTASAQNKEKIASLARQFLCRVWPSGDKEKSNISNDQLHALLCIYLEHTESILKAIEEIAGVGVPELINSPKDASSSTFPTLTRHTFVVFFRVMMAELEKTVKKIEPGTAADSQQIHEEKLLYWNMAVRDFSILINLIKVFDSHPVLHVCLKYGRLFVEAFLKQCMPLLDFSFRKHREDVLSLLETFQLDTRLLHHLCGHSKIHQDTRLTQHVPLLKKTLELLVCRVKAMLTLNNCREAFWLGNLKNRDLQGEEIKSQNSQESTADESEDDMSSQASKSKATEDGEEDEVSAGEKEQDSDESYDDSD

[2] = biological target: B6; test: co-IP; in vitro binding assay of purified recombinant proteins from Sf9 cells; His-UHRF2 was immunoprecipitated, immunoblotting; conditions: both partners purified

binding result [1] | binding result [2] | Binder
binds |  | B1
binds |  | B2
binds |  | B3
binds | binds | B4
binds |  | B5
binds |  | B6
